Results published in the DeepSol protein solubility set.

Assay: soluble on expression in E. coli; label from the status in PepcDB or PDB records

Row | Sequence | soluble on expression in E. coli
1 | MGSDKIHHHHHHMRFTEGLWRLREGVQLFRPEQVYEYSCDGKKLILRSPFRRVEHRGQTLQGPVFEIEISSPFENVIRIRFRHFKGVLEKPPYYEIYQDESFTPDIKETEGSFIFTSGKAKAIIRKNPFGVEFFYEDRFLTKSDLGYAVAPEGRFCLERLHLSVGEMIYGLGERFSAFVKNAQRVVMWNEDAGTISDMTYKNIPFYVSIRKYGVFVNDPGKVDFEIATEHVEKVQFSVKGETLDYFIIAGKDLKEVLERYTLLTGRPELPPAWSFGLWLTTSFTTQYDERTVMEFVDGMRERDIPLHVFHFDCFWMKEFHWVDLEWNRENFPDPEGLLKRLKEKGLKVCVWINPYVSQFSSLFDEGKEKGYFLKKPDGDVWQTDDWQPGMAIIDFTNPEVRKWFASKLERLIDMGVDCFKTDFGEKIPTDVVYYDGSDPEKMHNYYTYLYNKVVFETIERKLGKRNAVVFARSATAGSQKFPVHWGGDCLASYESMAETLRGGLSLALCGFGFWSHDIGGFEDITTPDLYKRWVAFGLLSSHSRLHGNSMYKVPWNFDEEAVEVLRFFTKLKCKLMPYIFASAVEVHERGIPVMRPMILEFPDDPTCLYLDRQYMLGESLLVAPIFSETGEVTYYLPEGVWTHFLTGERVEGGRWRTEKYDYFGLPLFTRPNSIIPTGSVDDRPDYDYADGVTLNVFEISNKTAHVYNTRGEVELSVKVERKGNEIHVEVLKDSRKPWKLLFWNERLEAVEGAETRELEKGTEVVLSFQRAILKTK | not soluble
2 | SDRFVWTSGLLEINETLVIQQRGVRIYDGEEKIKFDAGTLLLSTHRLIWRDQKNHECCMAILLSQIVFIEEQAAGIGKSAKIVVHLHPAPPNKEPGPFQSSKNSYIKLSFKEHGQIEFYRRLSEEMTQRRWENMPVSQSLQTNRGPQPGRIRAVGIVGIERKLEEKRKETDKNISEAFEDLSKLMIKAKEMVELSKSIANKIKDKQGDITEDETIRFKSYLLSMGIANPVTRETYGSGTQYHMQLAKQLAGILQVPLEERGGIMSLTEVYCLVNRARGMELLSPEDLVNACKMLEALKLPLRLRVFDSGVMVIELQSHKEEEMVASALETVSEKGSLTSEEFAKLVGMSVLLAKERLLLAEKMGHLCRDDSVEGLRFYPNLFMTQS | soluble
3 | MSHPWRSRGEKRTIMFGYTPSDTILKYLKDMRDLINRAILNAYSIARSNDDSLPSPITLRRSLKDYYDNNVAYAKHHINPVCRTAIAMLRSYKKNNGRLKVVKAKRLAMRIDSELAKIEDNRLRITIRPNVYEYVDIVDRNKKYSEYSKYPISEVLLTDNRVYITFITGSDDKPVIANNIIGFDLNFKSVDYTVIKDNRIAYVDSIDTYDIAKTQRDYERKRRKIQKHIRNPAKRIRKLKEAKHRQRNIVRDKLQKLTTNIVKNNEDKTFVFEDLTNIKKKGKKHKDHKRDGQSSKRFRTDINRWPYRLFQMFVEYKSKNETLYVDPEGTSSECPVCGGILEHPIWKMSKCDNCGATFDRDRLSSLSIAVRGLHLCGTPFSVSGSASWDSMKDNYLYRLEHHHHHH | soluble
4 | MRGFLFSMAQHFSLSAEARHLSIQVDELSDVEILSLLKTARWGNADNINDIECPHCHVRHEAYFIKTRQQWQCKHCCYRFSITAGTIFHLAKLSLRKILKALRYFALKSKGLSAIELSHEINVQYKTAWGLRHKFREALDKTKDLTPLKDEVHIDGAYTNYYIRPKNFRHKRIDRRKKRYQREDKSCVLVFRQRAANQAQMKGADRSIVALIKEENTQDVLDLTQRLVKQGSTIHTDENPAYDSLQFLYDLWRVNHSQEYCSIEGITNNLAESFFARFRRMIIGVHHKMANRYMLYYANEIAWREDNRLKTDREKLNDVLQRCIKTKPSRHFTGYWQGSKKSPETFGLESINASNDSHYLIAALEHHHHHH | not soluble
5 | MDRFENMNAFVRVVETGSISAAADRMDIAKSVVSRRLKELEEHLGVELFHRTTRQMNLTDSGRAFYQQSVRILADVLEAEHATSQFHGRLKGHLKVAVPLSFGLMHLGAAISTFLQTHPDIEFDLDFNDRQVDLLAEGFDLAIRIANLPDSSLIARRLAPIQAVMCASPAYLERMGTPQAPEELIRHRCLVYNLVSHSDNWNVYGTTGELIKTRIIPYLKASNGEFLRDAAVDGLGIVLLPTFIVYREIQRGALIPILTGYHYAQLAAYAIYPQTRHLSQRVRAFVDFLSQRFEGMPYWDACLNQ | not soluble
6 | MSLLKVREMEREDVERVYEINRESFTTDAWSRFSFEKDFENKFSRRFVLEEDGKVVGYVIFWVVKEEATIMTFAIAPGYRGKGYGEKLLREAISRLGDKVKRVVLDVRKSNLRAINLYKKLGFKVVTERKGYYSDGENALLMELKISRPSEAELSREGHHHHHH | soluble
7 | MLGSLAAEKRSVFQTSCCVRYKGCMLGVGPTVWGVVWGLGCTVEARGLRKRFGGRTAVAGVSFSVGDGERACIMGPNGSGKTTLLRMVSGVLRPSGGSVRVCGYDVWGDGWREARGLIGFAPQDPPMARRMTGAEYITVVGGLLGLSPGVARREARRVLEMLGFEDVLGRVVARLSGGQRRALGIALALASNPEVVVLDEPGSGLDVRARESLWASLRKAFKGRTVLFSSHDPQEAEAESDRVLIMHRGRLAAWGKPRELIQRYAPKPRVRVWADRAPDGLEPVHTGPGFSDYLIEAPGDVARIASAYSGAGILVERIEVLKPSLREVFFAVTGEEMD | soluble
8 | MGSDKIHHHHHHMAFKQRREYLFLYTVKDANPNGDPLNENHPRYDGDTAQAMASDVRVKRTTRDEWVRSGEIVFVDGEPKSLKTRFEELKKITGKSDAREIMKQCLDVRLFGVTFALGKEAFAWTGPVQFKWGRSLHSASFEFVQGTAAFATERGGADNRQRSFRNEYLVPFALMGVYAIANQYASQYTDAADEDLQRMLDGLWQGTDNLITRSKNEHKSRLLIEITYKEDFNGKIGALDDKVTLLDREGKVMDREKQKALRSLQEVSLDIGALLKSMELKQEQIAGIRVITDGEINIIQEEQLKGISSIEVR | not soluble
9 | AGFQLNEFSSSGLGRAYSGEGAIADDAGNVSRAPALITMFDRPTFSAGAVYIDPDVNISGTSPSGRSLKADNIAPTAWVPNMHFVAPINDQFGWGASITSNYGLATEFNDTYAGGSVGGTTDLETMNLNLSGAYRLNNAWSFGLGFNAVYARAKIERFAGDLGQLVAGQIMQSPAGQTQQGQALAATANGIDSNTKTAHLNGNQWGFGWNAGILYELDKNNRYALTYRSEVKIDFKGNYSSDLNRAFNNYGLPIPTATGGATQSGYLTLNLPEMWEVSGYNRVDPQWAIHYSLAYTSWSQFQQLKATSTSGDTLFQKHEGFKDAYRIALGTTYYYDDNWTFRTGIAFDDSPVPAQNRSISIPDQDRFWLSAGTTYAFNKDASVDVGVSYMHGQSVKINEGPYQFESEGKAWLFGTNFNYAFHHHHHH | soluble
10 | NGLVDSMIKNAIAWQTSHLQIHQSAYLVNPELKDTIPDSQSIVTTLDKHQSVKAVSERFLADGMIASARSSRGIRINGIHLEQEQKITPLSEHIIDGYWLDEEGRNPILVSQKTAKRLKLRVGSKVILTLSDINGDVSGAAFRVKGIFKTPSTTFDDGNVYVRKADLEKIAGIAGAHEIAILLNANDDDVLQNIVSFTRTLTDDGSGKPLTVRTWLEIQPLLSTMMSSMDISNQ | not soluble
11 | MKPLTDTDYIHALIAEGEHQQQDFKFEISDTRKIAKTLSAFANTDGGRLLIGVKDNGKIAGVRSDEEKYMIEAAAQLYCWPEVDYSMQTFHVEGRSVLVVQIDESEHKPVFAKDENGKSLAYIRIKDENILATPVHLRVWQQSGSPAGELIRYTEREQLLLDLLEENTSLSLNRYCRQAGISRRAAEHLLAKFIRFDIVEPIFENHKFYFRLKLEHHHHHH | soluble
12 | MKIFLDSAITTDIQDRLATEIIDGVTTNPTLIKKSNEDPDVVYKELYDMRVKDISIEVRGDTAQELAANGILYGRKYGEVATIKLPCTVEGIKACKKLSILGHKTNMTLVFSVSQAILCAKAGATYVSPFVGRLDQIGEDGIQLIRDISRVYCVSGVKTQILAASIRSPKQAEDAYLAGADICTLPVKVFDQMFKHTLTDDGLKQFAIDFGINF | not soluble
